{
  "source": "patent US12077763B2",
  "about": "“RNA-based control of powdery mildew” (Greenlight Biosciences, Inc., priority 2021, dated 2024)",
  "molecules": {"B1": {"name": "GS3335 (nucleic acid)", "sense": "UUGAGUACAGAGUAGUAGUAAUCUAUUUACAUGAAUUACAAGCUUGUACGGAUGAAUGUUUGUCAUAAGCCUACUCAUCUUUCAUGGCGAAUUUCCCAGGCGGCUAACUACUCUAAUUUGUGAGAGGCAUGAAAGUAAUGAUAGAUUUUCUCUAUGUAUAAUAAAUAGUACUCGUAUUUUAAUCAUUCAAACCCUAGUGAUAUCUUUUGUACUCUUCUCUUAUCAAAUUACAUCAAGUUCAUUCCGUCAUUUCUCGUUAUAUAUGACAUAUAAAGCAUUCCAUUCGCAUGAUAGAAAAUAAGUAAUAUGUAUAAUGACUCAAAGCCUUCACCCCAUAGCCAAAAAGUUGGGUUUAUAGUGAAACUUGUGACGUAGAGGGGAUUAAUAUCGCAUUUUCU", "antisense": "AGAAAAUGCGAUAUUAAUCCCCUCUACGUCACAAGUUUCACUAUAAACCCAACUUUUUGGCUAUGGGGUGAAGGCUUUGAGUCAUUAUACAUAUUACUUAUUUUCUAUCAUGCGAAUGGAAUGCUUUAUAUGUCAUAUAUAACGAGAAAUGACGGAAUGAACUUGAUGUAAUUUGAUAAGAGAAGAGUACAAAAGAUAUCACUAGGGUUUGAAUGAUUAAAAUACGAGUACUAUUUAUUAUACAUAGAGAAAAUCUAUCAUUACUUUCAUGCCUCUCACAAAUUAGAGUAGUUAGCCGCCUGGGAAAUUCGCCAUGAAAGAUGAGUAGGCUUAUGACAAACAUUCAUCCGUACAAGCUUGUAAUUCAUGUAAAUAGAUUACUACUACUCUGUACUCAA"}, "B2": {"name": "GS3323 (nucleic acid)", "sense": "AGGCGUGGACUGUAGCCUCAAUAGCAUACACUGAAUCGAAUGAGUUGUCAGGAAAUGACAUUUGCAUAAAGUCACCCUUAACAAAGCUUAAUUGGUUUGAUAAGCCUUCUUUCUGUGCAUAUCUCGUGGCCCGCUCUAUUUGGUAAUCAUUGUUGUUCAAGCCAGUAAUAUGAGCGCCAGUAAACUUGGCGAUUUCUCUUGCCGGACCACCAACACCACAUCCGACAUCAAGUACUUUGUCUGCCUCAUUAAUGCCUAUCUUAGCGGCAAGAUAAUGUUCAUGUCGCGCAAUCGCUUGGUAAAAUGGUUCACCGUAAGCAAAUCUACAGAAGUGAAAAGAUUGUCCCCAGCCGUAUUCGUAAAGAUCGGUGCCGAGAUUAUAGUACUGUCUUGUCAAA", "antisense": "UUUGACAAGACAGUACUAUAAUCUCGGCACCGAUCUUUACGAAUACGGCUGGGGACAAUCUUUUCACUUCUGUAGAUUUGCUUACGGUGAACCAUUUUACCAAGCGAUUGCGCGACAUGAACAUUAUCUUGCCGCUAAGAUAGGCAUUAAUGAGGCAGACAAAGUACUUGAUGUCGGAUGUGGUGUUGGUGGUCCGGCAAGAGAAAUCGCCAAGUUUACUGGCGCUCAUAUUACUGGCUUGAACAACAAUGAUUACCAAAUAGAGCGGGCCACGAGAUAUGCACAGAAAGAAGGCUUAUCAAACCAAUUAAGCUUUGUUAAGGGUGACUUUAUGCAAAUGUCAUUUCCUGACAACUCAUUCGAUUCAGUGUAUGCUAUUGAGGCUACAGUCCACGCCU"}, "B3": {"name": "GS3324 (nucleic acid)", "sense": "CAAACUCGCUCAAUUCUCCGUAUGACUAAUUGUUCUUAUACUUAUCCUGGCGCUUCAAAACCGUCUUUGCACAAUGUGUCUUGUCAACUCUCCCUUUCAUCUCGAACUGCAAUCAUAGGUGGUAAUGGUGCAGGAAAAUCAACGUUAAUAAAACUACUUACUGGCGAGACGGUCCCUACUUCUGGGCGAGUCGAAAAACACCCUAAUUUGCGAAUUGGAUAUAUAAAACAACAUGCACUUGAACAUGUUGAAAUGCAUCUCGAGAAAACCCCAAACCAAUAUCUUCAAUGGCGCUAUGCCAAUGGUGAUGAUCGUGAGGUACAUAUGAAACAGACUCGUAUUUUAUCGGAUGCUGAUAAAGCUCAAAUGGAAAAAUGGAUUGAUAUCGAUGGGAAG", "antisense": "CUUCCCAUCGAUAUCAAUCCAUUUUUCCAUUUGAGCUUUAUCAGCAUCCGAUAAAAUACGAGUCUGUUUCAUAUGUACCUCACGAUCAUCACCAUUGGCAUAGCGCCAUUGAAGAUAUUGGUUUGGGGUUUUCUCGAGAUGCAUUUCAACAUGUUCAAGUGCAUGUUGUUUUAUAUAUCCAAUUCGCAAAUUAGGGUGUUUUUCGACUCGCCCAGAAGUAGGGACCGUCUCGCCAGUAAGUAGUUUUAUUAACGUUGAUUUUCCUGCACCAUUACCACCUAUGAUUGCAGUUCGAGAUGAAAGGGAGAGUUGACAAGACACAUUGUGCAAAGACGGUUUUGAAGCGCCAGGAUAAGUAUAAGAACAAUUAGUCAUACGGAGAAUUGAGCGAGUUUG"}, "B4": {"name": "GS3320 (nucleic acid)", "sense": "UUAUCAUGCUGCCAUGGUUCAUAAGAAAAAAAUUUACUAAGAUUAGUAGGGAUGCAUAGACCUAAUGACACGCCCAUAAAAGUUGUAUGGCUAUCCCAACCAUGUUCAGAAAGUAUCUCGAGACCAUGAAUGCUUCUAGAAAUAAGGCCAAGUACGAAAAAUGCGGUUCCUCUCAUGCUCAUUAUUUCAUGCGAUUCUGCAAUUUUAAUUAUGUUCUGCACGACAUCUGAUUUUUCAAGAAAAGGAGCACCCAAUUCCAUAGAUCCAACGUUACCUACAGCCCAUAGGCAUCCUUUAACCUUAAGAAUAAUCUCUAAAUCAUCAUAAUGCAUUCCAUAUUCACGAAUGGUUGAGGCAAAUUCAUCAAAAUGACCUUUAUCAUGCAAGAGCUU", "antisense": "AAGCUCUUGCAUGAUAAAGGUCAUUUUGAUGAAUUUGCCUCAACCAUUCGUGAAUAUGGAAUGCAUUAUGAUGAUUUAGAGAUUAUUCUUAAGGUUAAAGGAUGCCUAUGGGCUGUAGGUAACGUUGGAUCUAUGGAAUUGGGUGCUCCUUUUCUUGAAAAAUCAGAUGUCGUGCAGAACAUAAUUAAAAUUGCAGAAUCGCAUGAAAUAAUGAGCAUGAGAGGAACCGCAUUUUUCGUACUUGGCCUUAUUUCUAGAAGCAUUCAUGGUCUCGAGAUACUUUCUGAACAUGGUUGGGAUAGCCAUACAACUUUUAUGGGCGUGUCAUUAGGUCUAUGCAUCCCUACUAAUCUUAGUAAAUUUUUUUCUUAUGAACCAUGGCAGCAUGAUAA"}, "B5": {"name": "GS3319 (nucleic acid)", "sense": "GUGUUGAGACCUAAGAGCCUAUGAGUGAGUCACAUUACAACAGAAAGCCUCAAGUCUAAAGUCAUAACCUAUUAAAAUUCGAAAGCACAAAAACAUCCAUUAGGAACUGACUAAGUACAAGAGCUACUCCAUAAAAAUCAGUCGCAAUACAUGUUUUUGCAAAGCAGAUCAACCUGGUUAAGACGAGAAAUAACUUAGUAUUCAACGUAGCUAAAUCUCCAGGGUGUUAGUGUAGUAUAUUGACGUUUCCGAAAUAAUUAAAACCAGCAUCUUAGUUUGGUGUUAUUUGAUAUAUAUGAUAAGAUUCGUUUAGGAUUUAUUGGAAUUUAUUUGGCUGGUAUCUAAUGUAGAUUUGAUUGAUACCGUAUUAUCAAAUCAUUUUAU", "antisense": "AUAAAAUGAUUUGAUAAUACGGUAUCAAUCAAAUCUACAUUAGAUACCAGCCAAAUAAAUUCCAAUAAAUCCUAAACGAAUCUUAUCAUAUAUAUCAAAUAACACCAAACUAAGAUGCUGGUUUUAAUUAUUUCGGAAACGUCAAUAUACUACACUAACACCCUGGAGAUUUAGCUACGUUGAAUACUAAGUUAUUUCUCGUCUUAACCAGGUUGAUCUGCUUUGCAAAAACAUGUAUUGCGACUGAUUUUUAUGGAGUAGCUCUUGUACUUAGUCAGUUCCUAAUGGAUGUUUUUGUGCUUUCGAAUUUUAAUAGGUUAUGACUUUAGACUUGAGGCUUUCUGUUGUAAUGUGACUCACUCAUAGGCUCUUAGGUCUCAACAC"}, "B6": {"name": "GS3333 (nucleic acid)", "sense": "AUAAAAGACUAAUAUGAUCUAAUUUAAAUCGAACUGAUUGAAAAACAUUUGAUUUGCAAUGAAAAUUAAUAUAUAAUCAAAUAAAAUCAAAUAUUUCUCACUCUGGUGCCGGCCCGUUGUGGUAGGAAGUGACCCAACUCUUAAAUCAGGUCAGCAACAUUCAUAGGCAUCUCUUCAAUUUGAGUGCUAUAAAACUGCUCAAUUUCACGCAUCAUCCGAACAUCAUCAGCUGUUACAAAGUUGAUCGCAACACCUUUUCGUCCAAAUCGACCACCUCGACCAAUUCUGUGAAUAUAAUUCUCACGAUUAGCAGGCAAGUCGUAAUUAAUAACUAAUGAAACUUGUUGUACAUCAAUACCACGAGCAAGAAGAUCAGUGGCAAUUAAAACACGGGAUGA", "antisense": "UCAUCCCGUGUUUUAAUUGCCACUGAUCUUCUUGCUCGUGGUAUUGAUGUACAACAAGUUUCAUUAGUUAUUAAUUACGACUUGCCUGCUAAUCGUGAGAAUUAUAUUCACAGAAUUGGUCGAGGUGGUCGAUUUGGACGAAAAGGUGUUGCGAUCAACUUUGUAACAGCUGAUGAUGUUCGGAUGAUGCGUGAAAUUGAGCAGUUUUAUAGCACUCAAAUUGAAGAGAUGCCUAUGAAUGUUGCUGACCUGAUUUAAGAGUUGGGUCACUUCCUACCACAACGGGCCGGCACCAGAGUGAGAAAUAUUUGAUUUUAUUUGAUUAUAUAUUAAUUUUCAUUGCAAAUCAAAUGUUUUUCAAUCAGUUCGAUUUAAAUUAGAUCAUAUUAGUCUUUUAU"}, "B7": {"name": "ES53: dsRNA trigger SEQ ID NO 114; gene target Hypotethicai effector (nucleic acid)", "DNA": "ACGATTATCGCCAATTGGGGTGATACTGTTGTAGTACATGTTACTAATTCATTAATGAATAATGGAACGAGCATTCATTTTCATGGACTCCGGCAATTCGAAACAAACCAAATGGATGGTCCAACATCAATAACACAGTGTCCCATAGCTCCCGGTGATAGTTTTACATATAGATGGGTTGCCTCTCAGTACGGAAGTTCATGGTACCATGCTCATTTCGCCGTAC"}, "B8": {"name": "GS1796: dsRNA trigger SEQ ID NO 211; gene target Putative aldehyde dehydrogenase-like protein C922.07c (nucleic acid)", "DNA": "TACCCATCCCTGGCTTAAGTATTGATTTATACATTCTAAAAGAGAGTTCGACGCATATTATGATCTACATACGGAAGTTTGGTAGGATGACGAAAACTCCTAACTTTTAAATTGAAAATTCACCAATCTGACAACATATCTATCTTATTATTGTTGCCCTAATCACTGCCTTTAATGAAGGAATAAAAAATTAAAAGATGCCCGTCACTGACTAACGCTTTTTTTTTAATTAGCCAAATTATCAGTTAACTGCAAACCAGCTACAGCGAGACGGTTTAAGCTCCCATATTTACAAAAACTGACTTGATTTGAGTGTAACCAGCTAGACCAGCTTCTCCTAGCTCCCGTCCAATTCCACTCTGTTTTACACCACCAAATGGGACCTTAAAACTTGAATCATTACTTGAATTAATCCATACCATGCCTGATTCAATTTTTCGCGCTACCCGATGAGCCCTCGTAATATCCTTGGTAAATACTGCACTACCAAGGCCATAGGTAGTATCATTTGCTATCTTTAGGGCTTCTTCTTCTGTTTTAAAGCTATTTATGACAACAAAAGGGCCGAAGACTTCTTCACGAAATATTTTCATAGATG"}},
  "data": [
    {"system": "E. necator", "assay": "Leaf disc assay, dry inoculum (settling tower), decrease in disease severity / hyphal growth (Example 2)", "conditions": "decrease in disease severity (hyphal growth) relative to untreated control; time point 1 (untreated control hyphal growth ≥50%); value ± SE", "units": {"% decrease =/− SE TP1": "%"}, "values": [
      {"molecule": "B1", "% decrease =/− SE TP1": "12 ± 6"},
      {"molecule": "B2", "% decrease =/− SE TP1": "26 ± 7"},
      {"molecule": "B3", "% decrease =/− SE TP1": "12 ± 7"},
      {"molecule": "B4", "% decrease =/− SE TP1": "20 ± 8"},
      {"molecule": "B5", "% decrease =/− SE TP1": "23 ± 8"},
      {"molecule": "B6", "% decrease =/− SE TP1": "5 ± 6"},
      {"molecule": "B7", "% decrease =/− SE TP1": "4 ± 1"}
    ]},
    {"system": "E. necator", "assay": "Leaf disc assay, dry inoculum (settling tower), decrease in disease severity / hyphal growth (Example 2)", "conditions": "decrease in disease severity (hyphal growth) relative to untreated control; time point 2; value ± SE", "units": {"% decrease =/− SE TP2": "%"}, "values": [
      {"molecule": "B2", "% decrease =/− SE TP2": "19 ± 7"},
      {"molecule": "B3", "% decrease =/− SE TP2": "14 ± 7"},
      {"molecule": "B4", "% decrease =/− SE TP2": "5 ± 8"},
      {"molecule": "B5", "% decrease =/− SE TP2": "25 ± 7"},
      {"molecule": "B8", "% decrease =/− SE TP2": "1 ± 8"}
    ]}
  ]
}
